Test results reported in patent US8017326B2, “Methods of modulating cell death based on the Bit-1/AES regulatory pathway” (Sanford-Burnham Medical Research Institute, priority 2002, dated 2011).
Entries after “also recorded” stand apart in the source; their conditions may differ.

Columns and labels:
[1] = system: Bit1-induced apoptosis in HEK 293 cells; assay: Extracellular matrix proteins and Bit1-induced apoptosis, trypan blue staining; assay type: cell-based, human; settings: HEK 293 cells plated onto coated dishes, 10 μg Bit1 plasmid, 48 hours
Experimental: Several extracellular matrix proteins were assayed for the ability to modulate Bit1-mediated apoptosis. Cells were plated onto bacterial culture dishes pre-coated overnight with fibronectin (Chemicon; Temecula; CA), vitronectin (SIGMA; St. Louis, Mo.) or type I collagen (SIGMA), and transfected and assayed for apoptosis as described above.
To analyze integrin involvement in protecting attached cells against the pro-apoptotic effect of Bit1, Bit1 cell lines expressing either α5β1 or αvβ1 as the main fibronectin receptor were compared. The two cell lines attach equally well to fibronectin but, like cytoplasmically truncated α5β1, αvβ1 fails to protect cells against apoptosis induced by serum deprivation (Zhang et al., supra, 1995; and Matter and Ruoslahti, supra, 2001).
Experiments with extracellular matrix proteins were performed as follows. Cells were plated onto uncoated tissue culture plates or onto bacterial culture plates coated with fibronectin, vitronectin or collagen, and allowed to attach in the presence of serum. The attachment was equal on all of these surfaces. The cells were then transfected with 10 μg of Bit1 expression plasmid; where indicated, cells were treated with a control IgG of unrelated specificity or monoclonal anti-human α5 antibody (Chemicon), both at 10 μg/ml. Cell death was measured by trypan blue staining 48 hours after the transfection.

CHO cells [2] = assay: Scoring of rounded-up cells expressing GFP as dead cells; assay type: cell-based, Chinese hamster
Experimental: AES was assayed for pro-apoptotic activity in CHO cells transfected with a green fluorescent protein (GFP)-AES fusion protein. […] However, in HEK 293 cells, which express no detectable Bit1 by immunohistochemistry or Northern analysis, transfection of AES alone was not apoptotic.
Furthermore, apoptosis was measured in cells transfected with Bit1 (5 μg DNA), AES (5 μg DNA) or both (5 μg each). Rounded up cells expressing GFP were scored as dead cells 24 and 48 hours after the transfection.
To determine if TLE1 suppresses apoptosis induced by AES in CHO cells, cells were transfected with GFP-AES or GFP-TLE1 alone, or both. Cell death was assessed by scoring rounded-up cells expressing GFP 48 hours later.

[3] = system: Heat Shock 70 kD protein 1A; assay: Northern blot of ecdysone-induced Bit1 or AES cell lines; assay type: cell-based, human; settings: ecdysone-inducible ECR-293 cell line expressing Bit1 or AES
Experimental: (§1) To determine whether the Bit1/AES pathway can regulate the transcription of genes other than Bcl-2, two stable cell lines were established expressing either-Bit1 or AES under control of an ecdysone-inducible promoter. To detect genes regulated by Bit1 or AES, probes were prepared from the ecdysone-induced cell lines and used to screen microarrays representing 19,000 human cDNAs. […] Down-regulation of HSP-70 and thymosin 4 in cells induced to express Bit1 or AES was confirmed by Northern blot analysis (see FIG. 7).
(§2) Northern blot analysis was performed as follows. Total RNA (10 μg) was electrophoresed on a 1% agarose-formaldehyde gel and transferred to nitrocellulose filters. The filters were hybridized using the same RNA probes as in the microarray experiments in Rapid-hyb buffer and washed according to the manufacturer's instructions (Amersham-Pharmacia).

Thymosin β-4 = assay: as above; assay type: cell-based, human; settings: ecdysone-inducible ECR-293 cell line expressing Bit1 or AES
Experimental: as §1, §2

HEK 293T cells = assay: Percentage of GFP-positive detached cells after transfection; assay type: cell-based, human; settings: 48 hours after transfection, GFP fusion construct
Experimental: (§3) To determine if Bit1 and AES are both required for apoptosis induction, HEK 293T, HOP92, and CHO cells were transfected with a GFP (vector), GFP-Bit1, or GFP-AES fusion protein constructs, as indicated in FIG. 3E. The cells were examined 48 hours (HEK 293T and CHO) or 72 hours (HOP92) after transfection, and the percentage of GFP-positive detached cells was measured.

19,000 human cDNAs = assay: cDNA microarray analysis of ecdysone-induced Bit1 or AES cell lines; assay type: cell-based
Experimental: as §1
cDNA microarray analysis was performed as follows. Total RNA was purified 48 hours after treatment with 10 μM ponasterone A (Invitrogen; San Diego, Calif.) from the ecdysone inducible cell line ECR-293-Bit1 or ECR-293-AES according to the manufacturer's instructions (Qiagen; Valencia, Calif.). cDNA probes were generated and hybridized with a microarray containing 19,000 human cDNAs from Microarray Centre at University Health Network, Ontario Cancer institute. cDNAs were labeled with fluorescent dyes (Cy3 or Cy5) using reverse transcription. Arrays were processed and hybridized essentially as described in Iyer et al., Science 283:83-87 (1999). After hybridization, arrays were scanned to measure fluorescence using a ScanArray 4000 scanner (Perkin Elmer; Meriden, Conn.). Raw data files generated by scanner software were imported into ImaGene and Gene Spring for analysis. Experiments were performed in duplicate using color reversals.

Bcl-2 promoter = Bcl-2 promoter reporter assay in CHO cells; assay type: cell-based, Chinese hamster; settings: CHO cells, 1 μg Bcl-2-luciferase reporter construct, 24 hours in culture
Source text: The entire CGI-147 open reading frame encodes a 27-kDa protein with no sequence similarity to other proteins. […] To denote this inhibitory transcriptional activity, the Clone-3 gene was denoted Bit1 for Bcl-2 inhibitor of transcription.

CHO cells [4] = assay: Percentage of GFP-positive detached cells after transfection; assay type: cell-based, Chinese hamster; settings: 48 hours after transfection, GFP fusion construct
Experimental: as §3

CHO cells [5] = assay: Deletion analysis, cell death by trypan blue exclusion; assay type: cell-based, Chinese hamster; settings: 10 μg construct, trypan blue exclusion 48 hours after transfection
Experimental: The amino-terminal portion of Bit1 (residues 16-40) is hydrophobic and can serve as a transmembrane domain or signal peptide sequence. When the hydrophobicity of this portion was reduced by substitution of glycine 22 and glycine 38 by serine, Bit1 apoptotic activity was reduced.
Deletion analysis was performed as follows. The indicated deletion mutants were cloned into vector pEGFP-C1, and 10 μg of each plasmid construct transfected into CHO cells. Cell death was measured by trypan blue exclusion 48 hours after transfection.
To delineate the pro-apoptotic domain of AES, a series of AES deletion mutants was prepared as amino-terminal fusions with GFP in vector pEGFP-C1. Various AES deletion constructs (10 μg) were transfected into CHO cells, and cell death measured by trypan blue exclusion 48 hours after transfection.

[6] = system: Bit1-induced apoptosis in HEK 293 cells; assay: Co-transfection of Bit1 with anti-apoptotic proteins; assay type: cell-based, human; settings: HEK 293 cells co-transfected with Bit1
Experimental: Co-transfections were performed with cells plated on non-coated dishes transfected with 5 μg Bit1 plasmid alone or together with 10 μg dominant negative (DN) R-Ras, or activated H-Ras plasmid (Zou et al., Proc. Natl. Acad. Sci. USA 96: 13813-13818 (1999)). […] Expression of the transfected proteins was confirmed by immunoblotting. Apoptosis was assayed as described above.

B1: vitronectin: extracellular matrix protein coated on culture dishes (SIGMA) (protein, UniProt P04004 20-478, looked up)
Vitronectin: DQESCKGRCTEGFNVDKKCQCDELCSYYQSCCTDYTAECKPQVTRGDVFTMPEDEYTVYDDGEEKNNATVHEQVGGPSLTSDLQAQSKGNPEQTPVLKPEEEAPAPEVGASKPEGIDSRPETLHPGRPQPPAEEELCSGKPFDAFTDLKNGSLFAFRGQYCYELDEKAVRPGYPKLIRDVWGIEGPIDAAFTRINCQGKTYLFKGSQYWRFEDGVLDPDYPRNISDGFDGIPDNVDAALALPAHSYSGRERVYFFKGKQYWEYQFQHQPSQEECEGSSLSAVFEHFAMMQRDSWEDIFELLFWGRTSAGTRQPQFISRDWHGVPGQVDAAMAGRIYISGMAPRPSLAKKQRFRHRNRKGYRSQRGHSRGRNQNSRRPSRATWLSLFSSEESNLGANNYDDYRMDWLVPATCEPIQSVFFFSGDKYYRVNLRTRRVDTVDPPYPRSIAQYWLGCPAPGHL
protection from Bit1-induced apoptosis [1]: largely protected

B2: TLE2: TLE family protein (protein, UniProt Q04725 1-743, looked up)
Transducin-like enhancer …: MYPQGRHPTPLQSGQPFKFSILEICDRIKEEFQFLQAQYHSLKLECEKLASEKTEMQRHYVMYYEMSYGLNIEMHKQAEIVKRLSGICAQIIPFLTQEHQQQVLQAVERAKQVTVGELNSLIGQQLQPLSHHAPPVPLTPRPAGLVGGSATGLLALSGALAAQAQLAAAVKEDRAGVEAEGSRVERAPSRSASPSPPESLVEEERPSGPGGGGKQRADEKEPSGPYESDEDKSDYNLVVDEDQPSEPPSPATTPCGKVPICIPARRDLVDSPASLASSLGSPLPRAKELILNDLPASTPASKSCDSSPPQDASTPGPSSASHLCQLAAKPAPSTDSVALRSPLTLSSPFTTSFSLGSHSTLNGDLSVPSSYVSLHLSPQVSSSVVYGRSPVMAFESHPHLRGSSVSSSLPSIPGGKPAYSFHVSADGQMQPVPFPSDALVGAGIPRHARQLHTLAHGEVVCAVTISGSTQHVYTGGKGCVKVWDVGQPGAKTPVAQLDCLNRDNYIRSCKLLPDGRSLIVGGEASTLSIWDLAAPTPRIKAELTSSAPACYALAVSPDAKVCFSCCSDGNIVVWDLQNQTMVRQFQGHTDGASCIDISDYGTRLWTGGLDNTVRCWDLREGRQLQQHDFSSQIFSLGHCPNQDWLAVGMESSNVEILHVRKPEKYQLHLHESCVLSLKFASCGRWFVSTGKDNLLNAWRTPYGASIFQSKESSSVLSCDISRNNKYIVTGSGDKKATVYEVVY
effect on apoptosis induced by AES (CHO cells [2]; rounded-up GFP cells scored 48 hours later): modestly suppresses

B3: AES: human AES, 197 residue Groucho/TLE family protein (SEQ ID NO:6) that associates with Bit1 (protein, listed as Homo sapiens)
chain: MMFPQSRHSGSSHLPQQLKFTTSDSCDRIKDEFQLLQAQYHSLKLECDKLASEKSEMQRHYVMYYEMSYGLNIEMHKQAEIVKRLNGICAQVLPYLSQEHQQQVLGAIERAKQVTAPELNSIIRQQLQAHQLSQLQALALPLTPLPVGLQPPSLPAVSAGTGLLSLSALGSQAHLSKEDKNGHDGDTHQEDDGEKSD
Northern result, suppression of Heat Shock 70 kD protein 1A [3]: 3 fold
Northern result, suppression of Thymosin β-4 (Thymosin β-4): 4 fold
effect on viability of 293T cells (HEK 293T cells): no effect on the viability
Bcl-2 expression (19,000 human cDNAs; Bit1 and AES stable cell lines): not measurably altered
Microarray result: gene induced (19,000 human cDNAs; at least a two-fold induction, value is the gene): DNA replication licensing factor; also recorded: NIK-related kinase 17; also recorded: CMP-N-acetylneuraminic acid
Microarray result: gene suppressed (19,000 human cDNAs; at least a two-fold suppression, value is the gene): Heat shock 70 KD protein 1A; also recorded: Thymosin β-4; also recorded: KCNAB2; also recorded: FLJ10386; also recorded: NET-5; also recorded: SRY-related HMG-box gene 4
Bcl-2 promoter activity (Bcl-2 promoter): down-regulate
time within which CHO cells receiving GFP-AES died (CHO cells [2]; GFP-AES fusion protein): ≤ 48 h
apoptosis induction in CHO cells (CHO cells [4]): induced apoptosis

B4: AES residues 106-197: AES deletion mutant, amino-terminal fusion with GFP (protein, UniProt Q08117 106-197, looked up, fragment)
chain: GAIERAKQVTAPELNSIIRQQLQAHQLSQLQALALPLTPLPVGLQPPSLPAVSAGTGLLSLSALGSQAHLSKEDKNGHDGDTHQEDDGEKSD
modifications: GFP fusion
notes: AES deletion mutant, amino-terminal fusion with GFP
pro-apoptotic activity of deletion constructs (CHO cells [5]): no apoptotic activity

B5: p35: caspase inhibitor protein, transfected expression construct (protein, UniProt P08160 1-299, looked up)
Early 35 kDa protein: MCVIFPVEIDVSQTIIRDCQVDKQTRELVYINKIMNTQLTKPVLMMFNISGPIRSVTRKNNNLRDRIKSKVDEQFDQLERDYSDQMDGFHDSIKYFKDEHYSVSCQNGSVLKSKFAKILKSHDYTDKKSIEAYEKYCLPKLVDERNDYYVAVCVLKPGFENGSNQVLSFEYNPIGNKVIVPFAHEINDTGLYEYDVVAYVDSVQFDGEQFEEFVQSLILPSSFKNSEKVLYYNEASKNKSMIYKALEFTTESSWGKSEKYNWKIFCNGFIYDKKSKVLYVKLHNVTSALNKNVILNTIK
effect on apoptosis induced by Bit1 [6]: little or no effect
